# Assay results from patent US20260191905A1 (MODERNATX, published 2026).
# B1: anti-GPC3 VHH-His tagged domain VHH17 (VHH)
# VHH: EVQLVESGGGLVQPGGSLRLSCAASGFTFSSYAMSWVRQAPGKGLEWVSAIYSGGSTYYADSVKGRFTISRDNSKNTLYLQMNSLRAEDTAVYYCARGDSSSSRFDYWGQGTLVTVSS
# notes: Produced from a mammalian expression vector as a His fusion; not shown: His tag
# B2: anti-GPC3 VHH-His tagged domain VHH14 (VHH)
# VHH: QVQLVESGGGLVQPGGSLRLSCAASGFNFSNYWMHWVRQAPGKELVWVSRINSDGSSTSYADPVKGRFTISRDNANNMLYLQMNSLRAEDTAMYYCVRVALGFDFWGQGTLVTVSS
# notes: as for B1
# B3: VH23 (VHH)
# VHH: EVQLVESGGGLVQPGGSLRLSCAASGFTFSSYAMSWVRQAPGKESEWVSSISGGGSSTYYADSLKGRFTISRDNSKNTLYLQMNSLRAEDTAVYYCSKDPRFGEPPFDYWGQGTLVTVSS
# notes: also called VHH23
# B4: anti-GPC3 VHH-His tagged domain VHH4 (VHH)
# VHH: QVQLVESGGGLVQPGGSLRLSCAASGFTFSSYAMSWVRQAPGKESEWVSSISGSGSSTYYADSLKGRFTISRDNSKNTLYLQMNSLRAEDTAVYYCSKDPRFGEPPFDYWGQGTTVTVSS
# notes: Produced from a mammalian expression vector as a His fusion; also called VH4; not shown: His tag
# B5: anti-GPC3 VHH-His tagged domain VHH18 (VHH)
# VHH: QVQLVESGGGLVQPGGSLRLSCAASGFTFSSYAMSWVRQAPGKEPEWVSSISGGGSSTYYADSLKGRFTISRDNSKNTLYLQMNSLRAEDTAVYYCSRDPRLGEPPFDYWGQGTTVTVSS
# notes: as for B1
# B6: anti-GPC3 VHH-His tagged domain VHH11 (VHH)
# VHH: EVQLVESGGGLVQPGGSLRLSCAASGFTFSSYAMSWVRQAPGKEPEWVSSISGGGSSTYYADSLKGRFTISRDNSKNTLYLQMNSLRAEDTAVYYCSRDPRFREPPFDYWGQGTLVTVSS
# notes: as for B1
# Key:
# [1] = molecular target: human GPC3 on Jurkat E6.1 cells (human) (UniProt P51654); experiment: FACS; share of events in the FL1-A+ gate (from 10^5); cells by legend: Jurkat E6.1 with human GPC3, not printed on the panel [23C]
# human GPC3 on Jurkat E6.1 cells (human), sequence (P51654 25-554 limits assumed): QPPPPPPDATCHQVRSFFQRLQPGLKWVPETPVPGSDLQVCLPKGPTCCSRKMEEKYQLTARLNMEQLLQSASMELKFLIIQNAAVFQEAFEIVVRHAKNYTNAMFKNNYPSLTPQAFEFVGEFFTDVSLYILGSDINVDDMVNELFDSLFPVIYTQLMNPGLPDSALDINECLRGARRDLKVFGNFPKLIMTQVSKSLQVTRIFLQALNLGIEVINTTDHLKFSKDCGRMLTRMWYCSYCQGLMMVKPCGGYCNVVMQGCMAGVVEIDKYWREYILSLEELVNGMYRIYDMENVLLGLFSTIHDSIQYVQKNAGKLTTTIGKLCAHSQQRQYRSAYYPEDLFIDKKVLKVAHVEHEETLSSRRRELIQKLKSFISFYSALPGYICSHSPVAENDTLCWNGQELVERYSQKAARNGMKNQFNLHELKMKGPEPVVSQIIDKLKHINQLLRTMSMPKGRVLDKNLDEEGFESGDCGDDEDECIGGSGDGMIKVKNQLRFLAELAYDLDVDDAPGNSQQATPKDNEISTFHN
# [2] = molecular target: human GPC3 on Jurkat E6.1 cells (human) (UniProt P51654); experiment: FACS; share of events in the FL1-A+ gate (from 10^5); secondary only 0.21; cells by legend: Jurkat E6.1 with human GPC3, not printed on the panel [23B]
# [3] = molecular target: human GPC3 on Jurkat E6.1 cells (human) (UniProt P51654); experiment: FACS; share of events in the FL1-A+ gate (from 10^5); beside Irrelavant IgG C10 6.49; cells by legend: Jurkat E6.1 with human GPC3, not printed on the panel [23D]
# [4] = molecular target: T1, human GPC3 recombinant protein (human, UniProt P51654 25-559); experiment: SPR (Biacore), VHH-His over human GPC3 on CM5; fit 131.7 - 17.34 nM; Rmax 1.51 RU; Chi2 0.0556
# T1 construct: also called huGPC3; Human GPC3 protein
# T1 sequence (P51654 25-559 limits assumed): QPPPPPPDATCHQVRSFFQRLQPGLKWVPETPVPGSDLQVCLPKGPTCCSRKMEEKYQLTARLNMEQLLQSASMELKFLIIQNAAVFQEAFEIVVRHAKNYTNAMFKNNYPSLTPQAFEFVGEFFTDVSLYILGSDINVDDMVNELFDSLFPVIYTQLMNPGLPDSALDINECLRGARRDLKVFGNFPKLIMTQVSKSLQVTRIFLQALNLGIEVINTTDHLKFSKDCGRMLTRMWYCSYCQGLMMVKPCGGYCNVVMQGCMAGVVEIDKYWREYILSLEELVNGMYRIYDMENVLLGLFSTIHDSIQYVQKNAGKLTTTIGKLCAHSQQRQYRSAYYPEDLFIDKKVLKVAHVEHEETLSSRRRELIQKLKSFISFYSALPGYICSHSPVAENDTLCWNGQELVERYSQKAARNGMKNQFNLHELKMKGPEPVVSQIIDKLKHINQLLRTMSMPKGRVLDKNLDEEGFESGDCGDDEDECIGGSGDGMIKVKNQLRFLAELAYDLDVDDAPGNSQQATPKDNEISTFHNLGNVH
# Procedure: (§1) Affinities of the 19 VHH-His tagged domains were then determined by BiaCore assay. Human GPC3 protein (Sino biological cat. nr. 10088-H08H-500) was immobilized on CM5 sensor chip (GE Healthcare) as antigen. Purified VHH-His tagged domains were diluted in BiaCore buffer (0.01 M HEPES pH 7.4, 0.15 M NaCl, 3 mM EDTA, 0.05% P20) to 500 nM and injected over 2 minutes at […] followed by a half dilution series to 7.8 nM. 10 μl of 10 mM NaOH/1M NaCl were injected between samples and then off-rate wash was 5 minutes.
# [5] = molecular target: T1, human GPC3 recombinant protein; experiment: SPR (Biacore), summary table; Chi2 0.0556; Profile 'L.D.'; asterisk: values not accurately calculated by Biacore software
# Procedure: as §1
# [6] = molecular target: T1, human GPC3 recombinant protein; experiment: SPR (Biacore), VHH-His over human GPC3 on CM5; fit 131.7 - 17.34 nM; Rmax 1.51 RU; Chi2 0.0556; asterisk: values not accurately calculated by Biacore software
# Procedure: as §1
# [7] = molecular target: T2, human GPC3 on HepG2 cells (human, UniProt P51654 25-554); experiment: FACS, phage-displayed clone on HepG2, well A1; same clone on A-431 (no GPC3): 0.95%
# T2 construct: whole, on cells
# T2 sequence (P51654 25-554 limits assumed): as the sequence (P51654 25-554 limits assumed) above
# [8] = molecular target: T2, human GPC3 on HepG2 cells; experiment: FACS, phage-displayed clone on HepG2, well A1; same clone on A-431 (no GPC3): 1028.96
# [9] = molecular target: T1, human GPC3 recombinant protein; experiment: SPR (Biacore), summary table; Chi2 0.926; Profile 'L.D.' (less desirable)
# Procedure: as §1
# [10] = molecular target: T2, human GPC3 on HepG2 cells; experiment: FACS, periplasmic extract 1:5 + anti-c-myc + GAM-APC on HepG2, well A1; same on A-431: 0.10%
# [11] = molecular target: T2, human GPC3 on HepG2 cells; experiment: FACS, periplasmic extract 1:5 + anti-c-myc + GAM-APC on HepG2, well A1; same on A-431: 853.36
# [12] = molecular target: T1, human GPC3 recombinant protein; experiment: SPR (Biacore), VHH-His over human GPC3 on CM5; fit 125 - 7.8 nM; Rmax 16.8 RU; Chi2 0.926
# Procedure: as §1
# [13] = molecular target: T1, human GPC3 recombinant protein; experiment: SPR (Biacore) off-rate screen, periplasmic extract over human GPC3 on CM5; R0 13.6; asterisk not explained on the sheet
# Procedure: (§2) Human GPC3 protein in acetate buffer, pH 5.0, was immobilized in a sensor chip CM5 (GE Healthcare; Cat. Nr. BR-1005-30; Lot. Nr.10245232) and successful immobilization was confirmed by using a commercially available human GPC3 antibody (R&D cat. nr. MAB2119) and the anti-GPC3-VHH-Fc (both at 10 μg/mL). Periplasmic extracts from the MP were diluted in Biacore Buffer (0.01 M HEPES pH 7.4, 0.15 M NaCl, 3 mM EDTA, 0.05% P20) and injected over 2 minutes at 30 μL/min. 10 μl of 10 mM NaOH/1M NaCl were injected between samples and off-rates were measured over 5 minutes. Off-rate ([…]) were calculated using BIACORE software 1:1 interaction Langmuir binding model.
# [14] = molecular target: T1, human GPC3 recombinant protein; experiment: SPR (Biacore) off-rate screen, periplasmic extract over human GPC3 on CM5; R0 40.1
# Procedure: as §2
# [15] = molecular target: T1, human GPC3 recombinant protein; experiment: SPR (Biacore), summary table; Chi2 0.281; Profile 'Good'
# [16] = molecular target: T1, human GPC3 recombinant protein; experiment: SPR (Biacore) off-rate screen, periplasmic extract over human GPC3 on CM5; R0 61.1
# Procedure: as §2
# [17] = molecular target: T1, human GPC3 recombinant protein; experiment: SPR (Biacore), VHH-His over human GPC3 on CM5; fit 131.7 - 17.34 nM; Rmax 11.5 RU; Chi2 0.281
# Procedure: as §1
# [18] = molecular target: T1, human GPC3 recombinant protein; experiment: SPR (Biacore), VHH-His over human GPC3 on CM5; fit 131.7 - 17.34 nM; Rmax 1.72 RU; Chi2 0.173
# Procedure: as §1
# [19] = molecular target: T1, human GPC3 recombinant protein; experiment: SPR (Biacore), summary table; Chi2 0.173; Profile 'L.D.'; asterisk: values not accurately calculated by Biacore software
# Procedure: as §1
# [20] = molecular target: T1, human GPC3 recombinant protein; experiment: SPR (Biacore), VHH-His over human GPC3 on CM5; fit 131.7 - 17.34 nM; Rmax 1.72 RU; Chi2 0.173; asterisk: values not accurately calculated by Biacore software
# Procedure: as §1
# [21] = molecular target: T2, human GPC3 on HepG2 cells; experiment: FACS, phage-displayed clone on HepG2, well H1; same clone on A-431 (no GPC3): 1.36%
# [22] = molecular target: T2, human GPC3 on HepG2 cells; experiment: FACS, phage-displayed clone on HepG2, well H1; same clone on A-431 (no GPC3): 1059.31
# [23] = molecular target: T2, human GPC3 on HepG2 cells; experiment: FACS, periplasmic extract 1:5 + anti-c-myc + GAM-APC on HepG2, well H1; same on A-431: 0.24%
# [24] = molecular target: T2, human GPC3 on HepG2 cells; experiment: FACS, periplasmic extract 1:5 + anti-c-myc + GAM-APC on HepG2, well H1; same on A-431: 759.64
# [25] = molecular target: T1, human GPC3 recombinant protein; experiment: SPR (Biacore) off-rate screen, periplasmic extract over human GPC3 on CM5; R0 59.0
# Procedure: as §2
# [26] = molecular target: T1, human GPC3 recombinant protein; experiment: SPR (Biacore), summary table; Chi2 0.281; Profile 'Medium'; FIG. 18 prints 2.97E-09
# Procedure: as §1
# [27] = molecular target: T1, human GPC3 recombinant protein; experiment: SPR (Biacore), VHH-His over human GPC3 on CM5; fit 250 - 7.8 nM; Rmax 8.15 RU; Chi2 0.281
# Procedure: as §1
# [28] = molecular target: human GPC3 on Jurkat E6.1 cells (human) (UniProt P51654); experiment: FACS, 1 µg/ml VH + anti-His-FITC; share of events in the FL1-A+ gate (from 10^5); secondary only 0.21 [23F]
molecule,measurement,setting,value
Irrelavant IgG C10 (antibody),FL1-A+,[1],6.49
HN3-Fc (Fc fusion),FL1-A+,[2],47.1
same,FL1-A+,[3],74.9
B1,koff,[4],0.00119 s⁻¹
same,kon,[4],222000 M⁻¹ s⁻¹
same,Kd,[5],~5.36 nM
same,Ka,[6],~1.86e+08 M⁻¹
same,Kd,[6],~5.36 nM
B2,% of Binding,[7],18.6%
same,Mean FL2-A,[8],2720
same,Kd,[9],66.2 nM
same,% of Binding,[10],0.38%
same,Mean FL4-A,[11],729
same,Ka,[12],1.51e+07 M⁻¹
same,Kd,[12],66.2 nM
same,koff,[12],0.0216 s⁻¹
same,kon,[12],327000 M⁻¹ s⁻¹
same,koff,[13],0.00728 s⁻¹
B3,koff,[14],0.00347 s⁻¹
B4,Kd,[15],5.07 nM
same,koff,[16],0.00236 s⁻¹
same,Ka,[17],1.97e+08 M⁻¹
same,Kd,[17],5.07 nM
same,koff,[17],0.00237 s⁻¹
same,kon,[17],466000 M⁻¹ s⁻¹
B5,koff,[18],0.00249 s⁻¹
same,kon,[18],511000 M⁻¹ s⁻¹
same,Kd,[19],~4.88 nM
same,Ka,[20],~2.05e+08 M⁻¹
same,Kd,[20],~4.88 nM
B6,% of Binding,[21],66.2%
same,Mean FL2-A,[22],22600
same,% of Binding,[23],0.57%
same,Mean FL4-A,[24],842
same,koff,[25],0.00325 s⁻¹
same,Kd,[26],2.19 nM
same,Ka,[27],3.37e+08 M⁻¹
same,Kd,[27],2.97 nM
same,koff,[27],0.00261 s⁻¹
same,kon,[27],880000 M⁻¹ s⁻¹
same,FL1-A+,[28],0.78
